Source: publication PMC9482650, “Quantitative fragmentomics allow affinity mapping of interactomes” (Nature Communications, 2022)

Legend:
Test in all cases: holdup assay
Set-up in all cases: key: below the threshold = too weak to quantify, mostly under pKd 3.1 to 4
FRMPD2_2, Q68DX3 = biological target: FRMPD2_2, Q68DX3
PDZD7_3, Q9H5P4 = biological target: T1, PDZD7_3, Q9H5P4
T1 sequence (Q9H5P4 857-944, limits assumed, looked up): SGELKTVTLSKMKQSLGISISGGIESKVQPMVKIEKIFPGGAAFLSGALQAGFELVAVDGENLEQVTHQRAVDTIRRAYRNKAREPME

Inadl_4, Q8NI35 = biological target: Inadl_4, Q8NI35
APBA3_1, O96018 = biological target: T2, APBA3_1, O96018
T2 sequence (O96018 389-490, limits assumed, looked up): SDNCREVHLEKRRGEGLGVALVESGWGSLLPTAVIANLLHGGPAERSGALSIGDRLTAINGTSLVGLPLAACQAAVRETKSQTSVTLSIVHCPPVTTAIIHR

PTPN13_1, Q12923 = biological target: T3, PTPN13_1, Q12923
T3 sequence (Q12923 1088-1188, limits assumed, looked up): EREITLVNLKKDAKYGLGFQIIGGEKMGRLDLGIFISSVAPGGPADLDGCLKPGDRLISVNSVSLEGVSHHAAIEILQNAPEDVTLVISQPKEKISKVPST

GRIP1_3, Q9Y3R0 = biological target: T4, GRIP1_3, Q9Y3R0
T4 sequence (Q9Y3R0 247-346, limits assumed, looked up): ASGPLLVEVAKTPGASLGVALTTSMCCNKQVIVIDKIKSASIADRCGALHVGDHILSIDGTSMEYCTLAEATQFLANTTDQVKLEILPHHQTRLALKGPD

GRIP1_4, Q9Y3R0 = biological target: T5, GRIP1_4, Q9Y3R0
T5 sequence (Q9Y3R0 467-571, limits assumed, looked up): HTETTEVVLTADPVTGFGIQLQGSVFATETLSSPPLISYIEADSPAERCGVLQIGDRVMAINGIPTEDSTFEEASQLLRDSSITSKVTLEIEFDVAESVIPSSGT

SHANK1, Q9Y566 = biological target: T6, SHANK1, Q9Y566
T6 sequence (Q9Y566 658-767, limits assumed, looked up): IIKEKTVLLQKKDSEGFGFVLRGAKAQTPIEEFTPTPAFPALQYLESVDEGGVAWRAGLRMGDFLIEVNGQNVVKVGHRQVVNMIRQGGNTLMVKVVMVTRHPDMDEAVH

DFNB31_1, Q9P202 = biological target: T7, DFNB31_1, Q9P202
T7 sequence (Q9P202 135-233, limits assumed, looked up): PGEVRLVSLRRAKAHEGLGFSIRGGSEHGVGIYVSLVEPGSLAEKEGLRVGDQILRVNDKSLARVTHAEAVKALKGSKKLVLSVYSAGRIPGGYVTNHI

MPDZ_12, O75970 = biological target: T8, MPDZ_12, O75970
T8 sequence (O75970 1857-1958, limits assumed, looked up): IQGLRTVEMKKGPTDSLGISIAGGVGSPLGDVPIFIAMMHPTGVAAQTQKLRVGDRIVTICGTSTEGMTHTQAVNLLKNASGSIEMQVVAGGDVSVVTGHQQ

PCLO, Q9Y6V0 = biological target: T9, PCLO, Q9Y6V0
T9 sequence (Q9Y6V0 4491-4600, limits assumed, looked up): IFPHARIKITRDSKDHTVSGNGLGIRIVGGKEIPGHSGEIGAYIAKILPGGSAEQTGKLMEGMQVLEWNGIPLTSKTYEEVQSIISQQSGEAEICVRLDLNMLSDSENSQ

DLG1_2, Q12959 = biological target: DLG1_2, Q12959
Inadl_6, Q8NI35 = biological target: Inadl_6, Q8NI35
CASK, O14936 = biological target: CASK, O14936
TJP1_2, Q07157 = biological target: TJP1_2, Q07157
MPP6, Q9NZW5 = biological target: T10, MPP6, Q9NZW5
T10 sequence (Q9NZW5 125-219, limits assumed, looked up): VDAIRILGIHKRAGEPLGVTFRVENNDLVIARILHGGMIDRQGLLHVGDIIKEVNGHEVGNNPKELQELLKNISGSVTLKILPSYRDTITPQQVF

NHERF2_2, Q15599 = biological target: NHERF2_2, Q15599
GIPC2, Q8TF65 = biological target: GIPC2, Q8TF65
DLG3_2, Q92796 = biological target: T11, DLG3_2, Q92796
T11 sequence (Q92796 221-321, limits assumed, looked up): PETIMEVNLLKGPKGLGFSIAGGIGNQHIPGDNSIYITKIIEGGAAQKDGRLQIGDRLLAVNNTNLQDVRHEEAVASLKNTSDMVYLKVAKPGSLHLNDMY

MAGI2_4, Q86UL8 = biological target: MAGI2_4, Q86UL8
FRMPD2_3, Q68DX3 = biological target: FRMPD2_3, Q68DX3
LAP2, Q96RT1 = biological target: LAP2, Q96RT1
APBA1_2, Q02410 = biological target: T12, APBA1_2, Q02410
T12 sequence (Q02410 742-832, limits assumed, looked up): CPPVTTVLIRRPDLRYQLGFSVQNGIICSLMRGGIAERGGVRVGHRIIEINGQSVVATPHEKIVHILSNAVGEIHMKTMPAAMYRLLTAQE

PARD3B_1, Q8TEW8 = biological target: T13, PARD3B_1, Q8TEW8
T13 sequence (Q8TEW8 196-299, limits assumed, looked up): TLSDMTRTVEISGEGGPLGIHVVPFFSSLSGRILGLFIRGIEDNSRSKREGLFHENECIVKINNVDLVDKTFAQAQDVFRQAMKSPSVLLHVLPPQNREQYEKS

[1] = plain residues with an end cap or a label only (N-terminal biotin on a linker: ttds)
[2] = plain residues with an end cap or a label only (N-terminal biotin on a linker: ahx)

Chain of LAP2, Q96RT1 (Q96RT1 other isoform, or with tags, fused parts or gaps): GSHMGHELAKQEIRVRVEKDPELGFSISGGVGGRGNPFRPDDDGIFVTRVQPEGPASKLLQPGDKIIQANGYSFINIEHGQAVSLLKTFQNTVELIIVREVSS
Chain of FRMPD2_3, Q68DX3 (Q68DX3 1073-1166): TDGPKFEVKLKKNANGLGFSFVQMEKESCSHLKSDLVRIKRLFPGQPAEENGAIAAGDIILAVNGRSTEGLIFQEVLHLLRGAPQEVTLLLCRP
Chain of Inadl_4, Q8NI35 (Q8NI35 547-651): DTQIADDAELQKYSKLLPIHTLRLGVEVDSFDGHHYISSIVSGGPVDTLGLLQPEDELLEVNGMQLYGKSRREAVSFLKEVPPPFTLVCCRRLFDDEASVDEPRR
Chain of NHERF2_2, Q15599 (Q15599 142-238): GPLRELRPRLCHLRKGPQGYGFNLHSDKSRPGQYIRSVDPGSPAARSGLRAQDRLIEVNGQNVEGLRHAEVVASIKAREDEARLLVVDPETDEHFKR
Chain of CASK, O14936 (O14936 487-570): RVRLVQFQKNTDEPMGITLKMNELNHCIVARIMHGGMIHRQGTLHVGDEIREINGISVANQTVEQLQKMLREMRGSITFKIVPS
Chain of MAGI2_4, Q86UL8 (Q86UL8 772-865): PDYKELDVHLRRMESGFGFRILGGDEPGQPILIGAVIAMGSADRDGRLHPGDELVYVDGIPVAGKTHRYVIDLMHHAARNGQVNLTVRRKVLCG
Chain of GIPC2, Q8TF65 (Q8TF65 112-203): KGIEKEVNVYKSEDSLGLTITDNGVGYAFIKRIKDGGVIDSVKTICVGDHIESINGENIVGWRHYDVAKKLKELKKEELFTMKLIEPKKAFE
Chain of FRMPD2_2, Q68DX3 (Q68DX3 944-1038): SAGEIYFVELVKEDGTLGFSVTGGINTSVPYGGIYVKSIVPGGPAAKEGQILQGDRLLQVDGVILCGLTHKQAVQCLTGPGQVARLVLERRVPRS
Chain of Inadl_6, Q8NI35 (Q8NI35 1058-1167): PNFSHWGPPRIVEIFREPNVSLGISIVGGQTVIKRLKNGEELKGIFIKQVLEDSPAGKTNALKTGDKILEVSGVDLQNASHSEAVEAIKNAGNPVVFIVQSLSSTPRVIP
Chain of DLG1_2, Q12959 (Q12959 314-412): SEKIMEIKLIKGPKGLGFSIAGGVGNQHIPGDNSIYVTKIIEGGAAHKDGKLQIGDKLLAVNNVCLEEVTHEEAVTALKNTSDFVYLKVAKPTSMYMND
Chain of TJP1_2, Q07157 (Q07157 181-274): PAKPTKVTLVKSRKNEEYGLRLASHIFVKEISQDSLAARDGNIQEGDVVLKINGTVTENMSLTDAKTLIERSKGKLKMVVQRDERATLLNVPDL

NQLAWFDTDL [CTNNB1, P35222]
pKd (FRMPD2_2, Q68DX3; [1]): below the threshold
pKd (PDZD7_3, Q9H5P4; [1]): below the threshold
pKd (Inadl_4, Q8NI35; [1]): below the threshold
pKd (APBA3_1, O96018; [1]): below the threshold
pKd (PTPN13_1, Q12923; [1]): below the threshold
pKd (GRIP1_3, Q9Y3R0; [1]): below the threshold
pKd (GRIP1_4, Q9Y3R0; [1]): below the threshold
pKd (SHANK1, Q9Y566; [1]): 4.1
pKd (DFNB31_1, Q9P202; [1]): 4.28
pKd (MPDZ_12, O75970; [1]): below the threshold
pKd (PCLO, Q9Y6V0; [1]): below the threshold
pKd (DLG1_2, Q12959; [1]): below the threshold
pKd (Inadl_6, Q8NI35; [1]): 4.13
pKd (CASK, O14936; [1]): below the threshold
pKd (TJP1_2, Q07157; [1]): below the threshold
pKd (MPP6, Q9NZW5; [1]): below the threshold
pKd (NHERF2_2, Q15599; [1]): 4.87
pKd (GIPC2, Q8TF65; [1]): 3.8
pKd (DLG3_2, Q92796; [1]): below the threshold
pKd (MAGI2_4, Q86UL8; [1]): below the threshold
pKd (FRMPD2_3, Q68DX3; [1]): below the threshold
pKd (LAP2, Q96RT1; [1]): 4.53
pKd (APBA1_2, Q02410; [1]): below the threshold
pKd (PARD3B_1, Q8TEW8; [1]): below the threshold

GIFPTLTSPL [SHROOM3, Q8TF72]
pKd (FRMPD2_2, Q68DX3; [2]): below the threshold
pKd (PDZD7_3, Q9H5P4; [2]): 3.51
pKd (Inadl_4, Q8NI35; [2]): below the threshold
pKd (APBA3_1, O96018; [2]): below the threshold
pKd (PTPN13_1, Q12923; [2]): below the threshold
pKd (GRIP1_3, Q9Y3R0; [2]): below the threshold
pKd (GRIP1_4, Q9Y3R0; [2]): below the threshold
pKd (SHANK1, Q9Y566; [2]): 4.8
pKd (DFNB31_1, Q9P202; [2]): below the threshold
pKd (MPDZ_12, O75970; [2]): below the threshold
pKd (PCLO, Q9Y6V0; [2]): below the threshold
pKd (DLG1_2, Q12959; [2]): below the threshold
pKd (Inadl_6, Q8NI35; [2]): below the threshold
pKd (CASK, O14936; [2]): below the threshold
pKd (TJP1_2, Q07157; [2]): below the threshold
pKd (MPP6, Q9NZW5; [2]): below the threshold
pKd (NHERF2_2, Q15599; [2]): 3.66
pKd (GIPC2, Q8TF65; [2]): below the threshold
pKd (DLG3_2, Q92796; [2]): below the threshold
pKd (MAGI2_4, Q86UL8; [2]): below the threshold
pKd (FRMPD2_3, Q68DX3; [2]): below the threshold
pKd (LAP2, Q96RT1; [2]): below the threshold
pKd (APBA1_2, Q02410; [2]): below the threshold
pKd (PARD3B_1, Q8TEW8; [2]): below the threshold
